Among the data in publication PMC9891525 are percent of parent (Relative fluorescence) and enrichment values, retold here.

Where two headings read alike, the source gives them in different places.

The target in test [1] is biotinylated recombinant SARS-CoV-2 wild type spike RBD (UniProt P0DTC2). The following applies: n = 2 replicates; parent: est. 100; read off a plot.
Test [2] shares this target. The following applies: n = 2 replicates; parent: est. 110; read off a plot.
Test [3] shares this target. The following applies: n = 2 replicates; parent: est. 100; read off a plot. The source holds these as a separate data set.
The target is the same in test [4]. The following applies: n = four independent experiments; read off a plot.

As for “REGN10987 scFv displayed on the surface of HEK 293T cells L106N; N57T”, in test [1], the percent of parent (Relative fluorescence) is 130.
“REGN10987 scFv displayed on the surface of HEK 293T cells S97Y; D54L”: the percent of parent (Relative fluorescence) in test [2] worked out at 220.
Regarding “REGN10987 scFv displayed on the surface of HEK 293T cells D54T”, the percent of parent (Relative fluorescence) in test [3] amounted to 120.
Same read-out and setting: the value for “REGN10987 scFv displayed on the surface of HEK 293T cells D54Y” was 82.
In the case of “REGN10987 scFv displayed on the surface of HEK 293T cells S97Y; D54F”, the percent of parent (Relative fluorescence) in test [2] amounted to 100.
With “REGN10987 scFv displayed on the surface of HEK 293T cells N57H”, the percent of parent (Relative fluorescence) in test [3] came out at 120.
Turning to “REGN10987 scFv displayed on the surface of HEK 293T cells S97Y; D54Y”, the percent of parent (Relative fluorescence) in test [2] is 130.
Consider “REGN10987 scFv displayed on the surface of HEK 293T cells D54F”, for which the percent of parent (Relative fluorescence) in test [3] turned out to be 97.
For the substance “REGN10987 scFv displayed on the surface of HEK 293T cells S97Y; D54I”, in test [2], the percent of parent (Relative fluorescence) stood at 220.
With “REGN10987 scFv displayed on the surface of HEK 293T cells S97Y; D54T; N57H”, the percent of parent (Relative fluorescence) in test [2] worked out at 240.
For “REGN10987 scFv displayed on the surface of HEK 293T cells L106N; N57F”, in test [1], the percent of parent (Relative fluorescence) is 120.
Take “REGN10987 scFv displayed on the surface of HEK 293T cells D54I”: in test [4], the enrichment is 3.2 log2(FC). In addition, the percent of parent (Relative fluorescence) in test [3] is 110.
“REGN10987 scFv displayed on the surface of HEK 293T cells S97Y; N57H”: the percent of parent (Relative fluorescence) in test [2] is 200.
As for “REGN10987 scFv displayed on the surface of HEK 293T cells D54L”, in test [3], the percent of parent (Relative fluorescence) amounted to 130.
The same measure, in the same setting: the figure for “REGN10987 scFv displayed on the surface of HEK 293T cells S97Y” is 150.
Consider “REGN10987 scFv displayed on the surface of HEK 293T cells S97Y; D54T”, for which the percent of parent (Relative fluorescence) in test [2] was determined as 220.
In the case of “REGN10987 scFv displayed on the surface of HEK 293T cells S97Y; D54Y; N57H”, the percent of parent (Relative fluorescence) in test [2] is 160.
On the same count and under the same terms, the value for “REGN10987 scFv displayed on the surface of HEK 293T cells S97Y; D54F; N57H” was 110.
